In publication PMC3988887:

Target: MBP-Cnn fusion containing the WT PReM domain (MBP-Cnn-WT) (Drosophila melanogaster)
Assay: SEC-MALS; purified MBP-Cnn fusions; equal volume of protein at 15, 75 or 300 uM loaded onto the column; expected monomer mass 67.4 kDa (by MS)

Question: “MBP-Cnn fusion containing the WT PReM domain (MBP-Cnn-WT) (domain or fragment)” was tested. Which stoichiometry N did it give?
Answer: 2
